Legend:
[1] = biological target: PCSK9 antigen (SEQ ID NO: 53), human PCSK9 (human) (UniProt Q8NBP7); assay: flow cytometry, PCSK9 left bound to CHO-LDLR cells (anti-His-FITC), control IgG 1000 nM
[2] = biological target: PCSK9 antigen (SEQ ID NO: 53), human PCSK9 (human) (UniProt Q8NBP7); assay: flow cytometry, PCSK9 left bound to CHO-LDLR cells (anti-His-FITC), control IgG 1 nM
[3] = biological target: PCSK9 antigen (SEQ ID NO: 53), human PCSK9 (human) (UniProt Q8NBP7); assay: flow cytometry, PCSK9 left bound to CHO-LDLR cells (anti-His-FITC), control IgG 100 nM
[4] = biological target: PCSK9 antigen (SEQ ID NO: 53), human PCSK9 (human) (UniProt Q8NBP7); assay: flow cytometry, PCSK9 left bound to CHO-LDLR cells (anti-His-FITC), control IgG 0.1 nM
[5] = biological target: PCSK9 antigen (SEQ ID NO: 53), human PCSK9 (human) (UniProt Q8NBP7); assay: flow cytometry, PCSK9 left bound to CHO-LDLR cells (anti-His-FITC), control IgG 10 nM

Fluorescence signal value [1]: 8920
Fluorescence signal value [2]: 6730
Fluorescence signal value [3]: 7520
Fluorescence signal value [4]: 7000
Fluorescence signal value [5]: 6960
Substance: IgG (antibody)
